Results taken from the Human Domainome abundance scans (Beltran et al. 2025).
± gives the uncertainty stated by the source.

B1: Homeobox protein cut-like 1, residues 941 to 1008; numbered along this chain, P39880 (parent)
chain: QEVDTIELTRQVKEKLAKNGICQRIFGEKVLGLSQGSVSDMLSRPKPWSKLTQKGREPFIRMQLWLNG

Variants of: B1
Test: abundance fitness (aPCA) (normalised: wild type 0, dead -1); higher = more abundant; growth selection in yeast, the domain comes from the species named
Settings: Homo sapiens

Variant | abundance fitness
QEVDTIELTRQVKEKLAKNGICWRIFGEKVLGLSQGSVSDMLSRPKPWSKLTQKGREPFIRMQLWLNG [Q23W] | -0.044 ± 0.076
QEVDTIELTRQVKEKLAKNGICYRIFGEKVLGLSQGSVSDMLSRPKPWSKLTQKGREPFIRMQLWLNG [Q23Y] | -0.162 ± 0.18
QEVDTIELTRQVKEKLAKNGICQPIFGEKVLGLSQGSVSDMLSRPKPWSKLTQKGREPFIRMQLWLNG [R24P] | -0.559 ± 0.082
QEVDTIELTRQVKEKLAKNGICQQIFGEKVLGLSQGSVSDMLSRPKPWSKLTQKGREPFIRMQLWLNG [R24Q] | -0.088 ± 0.081
QEVDTIELTRQVKEKLAKNGICQVIFGEKVLGLSQGSVSDMLSRPKPWSKLTQKGREPFIRMQLWLNG [R24V] | -0.204 ± 0.062
QEVDTIELTRQVKEKLAKNGICQGIFGEKVLGLSQGSVSDMLSRPKPWSKLTQKGREPFIRMQLWLNG [R24G] | -0.224 ± 0.07
QEVDTIELTRQVKEKLAKNGICQLIFGEKVLGLSQGSVSDMLSRPKPWSKLTQKGREPFIRMQLWLNG [R24L] | -0.253 ± 0.055
QEVDTIELTRQVKEKLAKNGICQIIFGEKVLGLSQGSVSDMLSRPKPWSKLTQKGREPFIRMQLWLNG [R24I] | -0.29 ± 0.12
QEVDTIELTRQVKEKLAKNGICQWIFGEKVLGLSQGSVSDMLSRPKPWSKLTQKGREPFIRMQLWLNG [R24W] | -0.144 ± 0.065
QEVDTIELTRQVKEKLAKNGICQCIFGEKVLGLSQGSVSDMLSRPKPWSKLTQKGREPFIRMQLWLNG [R24C] | -0.22 ± 0.074
QEVDTIELTRQVKEKLAKNGICQKIFGEKVLGLSQGSVSDMLSRPKPWSKLTQKGREPFIRMQLWLNG [R24K] | -0.07 ± 0.09
QEVDTIELTRQVKEKLAKNGICQYIFGEKVLGLSQGSVSDMLSRPKPWSKLTQKGREPFIRMQLWLNG [R24Y] | -0.101 ± 0.1
QEVDTIELTRQVKEKLAKNGICQEIFGEKVLGLSQGSVSDMLSRPKPWSKLTQKGREPFIRMQLWLNG [R24E] | 0.109 ± 0.12
QEVDTIELTRQVKEKLAKNGICQSIFGEKVLGLSQGSVSDMLSRPKPWSKLTQKGREPFIRMQLWLNG [R24S] | -0.136 ± 0.055
QEVDTIELTRQVKEKLAKNGICQTIFGEKVLGLSQGSVSDMLSRPKPWSKLTQKGREPFIRMQLWLNG [R24T] | -0.268 ± 0.081
QEVDTIELTRQVKEKLAKNGICQFIFGEKVLGLSQGSVSDMLSRPKPWSKLTQKGREPFIRMQLWLNG [R24F] | -0.362 ± 0.097
QEVDTIELTRQVKEKLAKNGICQNIFGEKVLGLSQGSVSDMLSRPKPWSKLTQKGREPFIRMQLWLNG [R24N] | 0.005 ± 0.14
QEVDTIELTRQVKEKLAKNGICQMIFGEKVLGLSQGSVSDMLSRPKPWSKLTQKGREPFIRMQLWLNG [R24M] | -0.315 ± 0.097
QEVDTIELTRQVKEKLAKNGICQDIFGEKVLGLSQGSVSDMLSRPKPWSKLTQKGREPFIRMQLWLNG [R24D] | -0.074 ± 0.11
QEVDTIELTRQVKEKLAKNGICQRIAGEKVLGLSQGSVSDMLSRPKPWSKLTQKGREPFIRMQLWLNG [F26A] | -0.649 ± 0.075

Variant | abundance fitness
QEVDTIELTRQVKEKLAKNGICQRIDGEKVLGLSQGSVSDMLSRPKPWSKLTQKGREPFIRMQLWLNG [F26D] | -1.05 ± 0.22
QEVDTIELTRQVKEKLAKNGICQRICGEKVLGLSQGSVSDMLSRPKPWSKLTQKGREPFIRMQLWLNG [F26C] | -0.709 ± 0.099
QEVDTIELTRQVKEKLAKNGICQRIGGEKVLGLSQGSVSDMLSRPKPWSKLTQKGREPFIRMQLWLNG [F26G] | -0.622 ± 0.078
QEVDTIELTRQVKEKLAKNGICQRIEGEKVLGLSQGSVSDMLSRPKPWSKLTQKGREPFIRMQLWLNG [F26E] | -0.883 ± 0.093
QEVDTIELTRQVKEKLAKNGICQRHFGEKVLGLSQGSVSDMLSRPKPWSKLTQKGREPFIRMQLWLNG [I25H] | 0.073 ± 0.12
QEVDTIELTRQVKEKLAKNGICQRPFGEKVLGLSQGSVSDMLSRPKPWSKLTQKGREPFIRMQLWLNG [I25P] | -0.578 ± 0.092
QEVDTIELTRQVKEKLAKNGICQRSFGEKVLGLSQGSVSDMLSRPKPWSKLTQKGREPFIRMQLWLNG [I25S] | -0.03 ± 0.059
QEVDTIELTRQVKEKLAKNGICQRDFGEKVLGLSQGSVSDMLSRPKPWSKLTQKGREPFIRMQLWLNG [I25D] | 0.156 ± 0.11
QEVDTIELTRQVKEKLAKNGICQRGFGEKVLGLSQGSVSDMLSRPKPWSKLTQKGREPFIRMQLWLNG [I25G] | -0.225 ± 0.049
QEVDTIELTRQVKEKLAKNGICQRTFGEKVLGLSQGSVSDMLSRPKPWSKLTQKGREPFIRMQLWLNG [I25T] | 0.083 ± 0.08
QEVDTIELTRQVKEKLAKNGICQRAFGEKVLGLSQGSVSDMLSRPKPWSKLTQKGREPFIRMQLWLNG [I25A] | -0.002 ± 0.062
QEVDTIELTRQVKEKLAKNGICQRQFGEKVLGLSQGSVSDMLSRPKPWSKLTQKGREPFIRMQLWLNG [I25Q] | -0.073 ± 0.083
QEVDTIELTRQVKEKLAKNGICQRYFGEKVLGLSQGSVSDMLSRPKPWSKLTQKGREPFIRMQLWLNG [I25Y] | 0.014 ± 0.086
QEVDTIELTRQVKEKLAKNGICQRFFGEKVLGLSQGSVSDMLSRPKPWSKLTQKGREPFIRMQLWLNG [I25F] | 0.07 ± 0.089
QEVDTIELTRQVKEKLAKNGICQRCFGEKVLGLSQGSVSDMLSRPKPWSKLTQKGREPFIRMQLWLNG [I25C] | -0.283 ± 0.1
QEVDTIELTRQVKEKLAKNGICQRWFGEKVLGLSQGSVSDMLSRPKPWSKLTQKGREPFIRMQLWLNG [I25W] | 0.021 ± 0.068
QEVDTIELTRQVKEKLAKNGICQRVFGEKVLGLSQGSVSDMLSRPKPWSKLTQKGREPFIRMQLWLNG [I25V] | -0.008 ± 0.051
QEVDTIELTRQVKEKLAKNGICQREFGEKVLGLSQGSVSDMLSRPKPWSKLTQKGREPFIRMQLWLNG [I25E] | 0.125 ± 0.079
QEVDTIELTRQVKEKLAKNGICQRKFGEKVLGLSQGSVSDMLSRPKPWSKLTQKGREPFIRMQLWLNG [I25K] | -0.022 ± 0.081
QEVDTIELTRQVKEKLAKNGICQRLFGEKVLGLSQGSVSDMLSRPKPWSKLTQKGREPFIRMQLWLNG [I25L] | -0.09 ± 0.052
